Where a chain is given by its changes, count along the chain named. Names and notes keep the numbering of the source.

Experimental findings from paper PMC10539340, “A common human MLKL polymorphism confers resistance to negative regulation by phosphorylation” (Nature Communications, 2023) are described below.

This series concerns the molecule itself. In words: SEC; HiLoad 16/600 Superdex 200 pg column after glutathione agarose; fractions at elution volume 55-63 ml taken as tetramers and pooled. On the technique in general: In gel filtration, larger molecules generally elute earlier.

B1: Recombinant full-length human MLKL (residue 2-471), wild type (natural protein, UniProt Q8NB16 2-471, looked up)
chain: ENLKHIITLGQVIHKRCEEMKYCKKQCRRLGHRVLGLIKPLEMLQDQGKRSVPSEKLTTAMNRFKAALEEANGEIEKFSNRSNICRFLTASQDKILFKDVNRKLSDVWKELSLLLQVEQRMPVSPISQGASWAQEDQQDADEDRRAFQMLRRDNEKIEASLRRLEINMKEIKETLRQYLPPKCMQEIPQEQIKEIKKEQLSGSPWILLRENEVSTLYKGEYHRAPVAIKVFKKLQAGSIAIVRQTFNKEIKTMKKFESPNILRIFGICIDETVTPPQFSIVMEYCELGTLRELLDREKDLTLGKRMVLVLGAARGLYRLHHSEAPELHGKIRSSNFLVTQGYQVKLAGFELRKTQTSMSLGTTREKTDRVKSTAYLSPQELEDVFYQYDVKSEIYSFGIVLWEIATGDIPFQGCNSEKIRKLVAVKRQQEPLGEDCPSELREIIDECRAHDPSVRPSVDEILKKLSTFSK
notes: Bacmids were made from pFastBac Htb vectors; also called MLKL^WT; hMLKL; source: Sf21 insect cells, purified (glutathione agarose, size-exclusion chromatography)
Take B1: the “stoichiometry N” value is 4.

B2: Recombinant full-length human MLKL (residue 2-471) S83D,S132P (natural protein, UniProt Q8NB16 2-471, looked up)
chain: B1 chain with S82D, S131P
notes: human MLKL, residues 2-471, compound mutant of the phosphomimetic S83D and the polymorphism S132P; Bacmids were made from pFastBac Htb vectors; also called MLKL^(S83D, S132P); MLKL^S83D,S132P; source: Sf21 insect cells, purified (glutathione agarose, size-exclusion chromatography)
B2: the “stoichiometry N” value turned out to be 4.

B3: Recombinant full-length human MLKL (residue 2-471) S132P (natural protein, UniProt Q8NB16 2-471, looked up)
chain: B1 chain with S131P
notes: human MLKL, residues 2-471, with the natural polymorphism p.Ser132Pro; Bacmids were made from pFastBac Htb vectors; also called MLKL^S132P; p.Ser132Pro; source: Sf21 insect cells, purified (glutathione agarose, size-exclusion chromatography)
As for B3, the “stoichiometry N” value stood at 4.

B4: Recombinant full-length human MLKL (residue 2-471) S83D (natural protein, UniProt Q8NB16 2-471, looked up)
chain: B1 chain with S82D
notes: human MLKL, residues 2-471, with the phosphomimetic S83D; Bacmids were made from pFastBac Htb vectors; also called MLKL^S83D; source: Sf21 insect cells, purified (glutathione agarose, size-exclusion chromatography)
For B4, the “stoichiometry N” value was found to be 4.

The term stoichiometry N denotes a count of units in the complex or per binding partner.
